Usually Kd stands for the constant that tells how readily two partners part at equilibrium. Read a low Kd as tighter binding.

1 molecule from doi:10.1101/2025.01.09.632086 (2025) can be followed below.

Holding throughout (assay): ITC
(In general: Isothermal titration calorimetry measures the heat released or taken up as one component is titrated into another.)

Experiment [1] concerns the target IscU I8K (E. coli, UniProt P0ACD4 1-128, I8K).
The target in experiment [2] is IscU R15A (E. coli, UniProt P0ACD4 1-128, R15A).
Experiment [3] addresses IscU Y11A (E. coli, UniProt P0ACD4 1-128, Y11A).

B1: HscA (natural protein)
chain: MALLQISEPGLSAAPHQRRLAAGIDLGTTNSLVATVRSGQAETLADHEGRHLLPSVVHYQQQGHSVGYDARTNAALDTANTISSVKRLMGRSLADIQQRYPHLPYQFQASENGLPMIETAAGLLNPVRVSADILKALAARATEALAGELDGVVITVPAYFDDAQRQGTKDAARLAGLHVLRLLNEPTAAAIAYGLDSGQEGVIAVYDLGGGTFDISILRLSRGVFEVLATGGDSALGGDDFDHLLADYIREQAGIPDRSDNRVQRELLDAAIAAKIALSDADSVTVNVAGWQGEISREQFNELIAPLVKRTLLACRRALKDAGVEADEVLEVVMVGGSTRVPLVRERVGEFFGRPPLTSIDPDKVVAIGAAIQADILVGNKPDSEMLLLDVIPLSLGLETMGGLVEKVIPRNTTIPVARAQDFTTFKDGQTAMSIHVMQGERELVQDCRSLARFALRGIPALPAGGAHIRVTFQVDADGLLSVTAMEKSTGVEASIQVKPSYGLTDSEIASMIKDSMSYAEQDVKARMLAEQKVEAARVLESLHGALAADAALLSAAERQVIDDAAAHLSEVAQGDDVDAIEQAIKNVDKQTQDFAARRMDQSVRRALKGHSVDEV
For B1, the figures for the Kd in experiment [1], in experiment [2] and in experiment [3] were 18200 nM, 2400 nM and 2700 nM, respectively.
